Test results published in publication PMC2175253.

Experiments:
Test in all cases: two-hybrid
[1] = target: α-catenin, full-length (pBTM116-HA-α-catenin) (mouse) (UniProt P26231)
[2] = target: nectin-2α cytoplasmic region (pBTM116-HA-nectin-2α-CP) (mouse)
[3] = target: α-catenin COOH-terminal half (pBTM116-HA-α-catenin-C) (mouse) (UniProt P26231)

nectin-2α cytoplasmic region (pBTM116-HA-nectin-2α-CP) (mouse), sequence (P32507 387-467): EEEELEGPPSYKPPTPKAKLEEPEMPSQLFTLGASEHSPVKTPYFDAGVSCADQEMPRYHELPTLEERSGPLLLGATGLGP

- β-galactosidase activity (units of β-galactosidase activity) [1]: < 1
- β-galactosidase activity (units of β-galactosidase activity) [2]: 41
- β-galactosidase activity (units of β-galactosidase activity) [3]: 30
Substance: l-afadin (pGAD424-HA-l-afadin), full-length, HA-tagged and fused with the GAL4 activation domain (from UniProt O35889-1 1-1829) (natural protein)
